Literature values as cited in paper PMC6197867.

Assays:
[1] = target: LEN light chain variable domain VL (Homo sapiens) (UniProt P06312)
[2] = target: SMA light chain variable domain VL (Homo sapiens) (UniProt P06312)

Row | Kd [1] [µM] | Kd [2] [µM] | Substance
1 | 10 |  | LEN light chain variable domain VL (from UniProt P06312)
2 |  | 40 | SMA light chain variable domain VL (from UniProt P06312)
